Literature values, collected in paper PMC4174909.

Target: His37 (UniProt position 37, IIGILHLILWI)

For “Matrix protein 2 (M2 proton channel) (Influenza A virus (strain not stated for the quoted pKa values; the experiments of this article use A/Udorn/72))”, the pKa is given as 8.2 and about 6 and about 4 to 5.
